Columns and labels:
[1] = biological target: recombinant human integrin alpha-v/beta-3 (Homo sapiens, UniProt P06756;P05106); assay: ELISA
[2] = biological target: recombinant human integrin alpha-v/beta-5 (Homo sapiens, UniProt P06756;P18084); assay: ELISA
[3] = biological target: recombinant human integrin alpha-v/beta-8 (Homo sapiens, UniProt P06756;P26012); assay: ELISA
[4] = biological target: recombinant human integrin alpha-v/beta-1 (Homo sapiens, UniProt P06756;P05556); assay: ELISA
[5] = biological target: recombinant human integrin alpha-v/beta-6 (Homo sapiens, UniProt P06756;P18564); assay: ELISA
Sequence of recombinant human integrin alpha-v/beta-6 (P06756 31-1048, chain 1 of 2): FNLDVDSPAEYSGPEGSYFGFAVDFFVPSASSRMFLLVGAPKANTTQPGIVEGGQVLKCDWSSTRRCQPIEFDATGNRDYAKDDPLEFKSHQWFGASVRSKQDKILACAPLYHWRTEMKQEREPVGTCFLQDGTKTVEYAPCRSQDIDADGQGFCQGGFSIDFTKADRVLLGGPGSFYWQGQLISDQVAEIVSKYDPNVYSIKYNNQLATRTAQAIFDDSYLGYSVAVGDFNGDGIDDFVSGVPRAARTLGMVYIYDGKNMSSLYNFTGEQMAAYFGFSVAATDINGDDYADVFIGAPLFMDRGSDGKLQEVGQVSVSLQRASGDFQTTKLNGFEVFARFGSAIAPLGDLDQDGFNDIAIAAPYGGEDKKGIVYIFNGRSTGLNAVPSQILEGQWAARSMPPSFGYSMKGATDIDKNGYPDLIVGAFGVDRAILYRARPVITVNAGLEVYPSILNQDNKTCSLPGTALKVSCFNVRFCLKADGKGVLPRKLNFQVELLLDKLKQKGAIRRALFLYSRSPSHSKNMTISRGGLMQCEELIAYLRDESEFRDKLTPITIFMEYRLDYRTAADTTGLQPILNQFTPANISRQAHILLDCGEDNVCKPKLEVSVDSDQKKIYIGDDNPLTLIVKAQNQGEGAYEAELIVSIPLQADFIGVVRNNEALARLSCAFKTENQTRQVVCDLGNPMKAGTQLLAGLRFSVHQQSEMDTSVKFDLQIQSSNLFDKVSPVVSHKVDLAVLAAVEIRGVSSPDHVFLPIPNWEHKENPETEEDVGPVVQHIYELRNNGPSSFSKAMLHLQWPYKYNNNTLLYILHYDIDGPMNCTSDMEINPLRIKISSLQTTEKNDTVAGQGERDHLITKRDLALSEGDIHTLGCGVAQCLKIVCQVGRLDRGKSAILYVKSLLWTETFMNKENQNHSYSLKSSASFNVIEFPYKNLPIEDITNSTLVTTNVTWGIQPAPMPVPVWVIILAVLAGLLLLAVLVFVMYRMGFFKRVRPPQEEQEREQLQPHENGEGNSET
Sequence of recombinant human integrin alpha-v/beta-6 (P18564 22-709, chain 2 of 2): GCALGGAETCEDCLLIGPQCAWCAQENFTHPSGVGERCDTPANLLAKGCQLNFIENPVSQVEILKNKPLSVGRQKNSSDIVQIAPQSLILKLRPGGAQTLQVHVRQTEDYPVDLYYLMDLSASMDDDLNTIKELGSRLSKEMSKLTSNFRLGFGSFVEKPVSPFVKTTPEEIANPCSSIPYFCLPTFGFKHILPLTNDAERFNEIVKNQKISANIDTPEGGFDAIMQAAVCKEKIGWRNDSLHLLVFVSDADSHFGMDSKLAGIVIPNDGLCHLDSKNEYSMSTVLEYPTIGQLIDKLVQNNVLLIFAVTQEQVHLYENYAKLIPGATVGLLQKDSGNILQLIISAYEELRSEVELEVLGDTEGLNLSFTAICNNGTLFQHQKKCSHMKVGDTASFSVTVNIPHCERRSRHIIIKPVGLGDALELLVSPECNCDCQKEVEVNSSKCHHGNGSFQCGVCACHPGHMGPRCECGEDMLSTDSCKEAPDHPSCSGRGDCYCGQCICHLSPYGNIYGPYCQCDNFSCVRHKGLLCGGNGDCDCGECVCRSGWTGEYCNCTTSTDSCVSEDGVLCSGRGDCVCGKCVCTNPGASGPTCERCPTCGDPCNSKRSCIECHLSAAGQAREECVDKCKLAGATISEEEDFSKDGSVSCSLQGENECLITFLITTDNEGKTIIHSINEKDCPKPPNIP

[6] = biological target: human integrin beta-6 on 293F:hu beta-6 transfected cells (Homo sapiens, UniProt P06756;P18564); assay: flow cytometry on cells

Sequence of recombinant human integrin alpha-v/beta-1 (P06756 31-1048, chain 1 of 2): as the sequence (P06756 31-1048, chain 1 of 2) above
Sequence of recombinant human integrin alpha-v/beta-1 (P05556 21-728, chain 2 of 2): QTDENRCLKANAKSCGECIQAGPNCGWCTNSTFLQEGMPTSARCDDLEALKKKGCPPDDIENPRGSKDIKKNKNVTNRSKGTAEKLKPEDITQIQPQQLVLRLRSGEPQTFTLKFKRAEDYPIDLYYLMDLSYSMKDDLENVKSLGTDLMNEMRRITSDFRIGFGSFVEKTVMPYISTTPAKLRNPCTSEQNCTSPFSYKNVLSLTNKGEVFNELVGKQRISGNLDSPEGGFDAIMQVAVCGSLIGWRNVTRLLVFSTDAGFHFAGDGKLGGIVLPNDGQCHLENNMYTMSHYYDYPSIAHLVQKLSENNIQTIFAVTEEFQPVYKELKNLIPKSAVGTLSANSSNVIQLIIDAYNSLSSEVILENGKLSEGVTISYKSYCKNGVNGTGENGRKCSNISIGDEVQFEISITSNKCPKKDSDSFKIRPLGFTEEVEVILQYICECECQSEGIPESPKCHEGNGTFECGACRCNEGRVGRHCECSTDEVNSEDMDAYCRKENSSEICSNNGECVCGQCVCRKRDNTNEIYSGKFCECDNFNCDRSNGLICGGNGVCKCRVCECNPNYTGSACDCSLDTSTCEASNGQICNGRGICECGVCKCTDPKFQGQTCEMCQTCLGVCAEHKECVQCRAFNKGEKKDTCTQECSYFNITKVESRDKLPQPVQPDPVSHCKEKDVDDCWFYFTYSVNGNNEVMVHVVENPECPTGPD
Sequence of recombinant human integrin alpha-v/beta-3 (P06756 31-1048, chain 1 of 2): as the sequence (P06756 31-1048, chain 1 of 2) above
Sequence of recombinant human integrin alpha-v/beta-3 (P05106 27-718, chain 2 of 2): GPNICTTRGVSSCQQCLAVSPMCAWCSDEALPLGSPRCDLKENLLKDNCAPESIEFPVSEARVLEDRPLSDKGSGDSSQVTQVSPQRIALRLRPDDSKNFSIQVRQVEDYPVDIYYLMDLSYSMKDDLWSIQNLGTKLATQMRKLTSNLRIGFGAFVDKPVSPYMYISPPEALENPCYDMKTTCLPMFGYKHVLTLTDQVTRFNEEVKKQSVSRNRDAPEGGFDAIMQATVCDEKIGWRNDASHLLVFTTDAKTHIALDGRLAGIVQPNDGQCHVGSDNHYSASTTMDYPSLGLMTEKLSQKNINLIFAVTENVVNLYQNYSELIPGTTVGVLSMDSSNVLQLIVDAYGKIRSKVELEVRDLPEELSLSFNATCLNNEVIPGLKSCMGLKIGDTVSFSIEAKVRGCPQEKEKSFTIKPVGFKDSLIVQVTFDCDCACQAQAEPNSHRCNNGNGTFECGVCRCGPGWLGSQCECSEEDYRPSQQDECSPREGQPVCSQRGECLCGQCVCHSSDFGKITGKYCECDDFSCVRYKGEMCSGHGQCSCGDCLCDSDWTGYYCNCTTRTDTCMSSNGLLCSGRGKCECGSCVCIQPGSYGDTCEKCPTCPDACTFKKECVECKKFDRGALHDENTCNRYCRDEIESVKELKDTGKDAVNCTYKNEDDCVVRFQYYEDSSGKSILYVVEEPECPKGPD
Sequence of recombinant human integrin alpha-v/beta-5 (P06756 31-1048, chain 1 of 2): as the sequence (P06756 31-1048, chain 1 of 2) above
Sequence of recombinant human integrin alpha-v/beta-5 (P18084 24-719, chain 2 of 2): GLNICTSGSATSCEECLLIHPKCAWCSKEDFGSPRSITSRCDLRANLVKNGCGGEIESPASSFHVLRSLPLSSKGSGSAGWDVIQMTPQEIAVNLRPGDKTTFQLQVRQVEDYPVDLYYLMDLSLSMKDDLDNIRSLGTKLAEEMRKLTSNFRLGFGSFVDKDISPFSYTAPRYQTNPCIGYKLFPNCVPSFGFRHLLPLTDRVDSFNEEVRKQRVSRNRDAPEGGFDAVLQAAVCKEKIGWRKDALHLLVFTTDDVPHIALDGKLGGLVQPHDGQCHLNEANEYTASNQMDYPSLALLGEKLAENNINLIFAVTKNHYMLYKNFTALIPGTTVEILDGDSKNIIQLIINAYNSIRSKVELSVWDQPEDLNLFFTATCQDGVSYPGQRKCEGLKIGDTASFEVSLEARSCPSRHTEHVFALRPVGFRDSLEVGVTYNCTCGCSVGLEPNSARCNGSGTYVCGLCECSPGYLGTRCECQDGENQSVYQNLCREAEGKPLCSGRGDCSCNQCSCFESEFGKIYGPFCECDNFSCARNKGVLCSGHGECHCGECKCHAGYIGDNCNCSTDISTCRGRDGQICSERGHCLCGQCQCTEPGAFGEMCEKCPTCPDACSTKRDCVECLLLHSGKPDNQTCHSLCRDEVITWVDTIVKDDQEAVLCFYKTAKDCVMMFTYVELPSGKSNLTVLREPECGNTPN
Sequence of recombinant human integrin alpha-v/beta-8 (P06756 31-1048, chain 1 of 2): as the sequence (P06756 31-1048, chain 1 of 2) above
Sequence of recombinant human integrin alpha-v/beta-8 (P26012 43-684, chain 2 of 2): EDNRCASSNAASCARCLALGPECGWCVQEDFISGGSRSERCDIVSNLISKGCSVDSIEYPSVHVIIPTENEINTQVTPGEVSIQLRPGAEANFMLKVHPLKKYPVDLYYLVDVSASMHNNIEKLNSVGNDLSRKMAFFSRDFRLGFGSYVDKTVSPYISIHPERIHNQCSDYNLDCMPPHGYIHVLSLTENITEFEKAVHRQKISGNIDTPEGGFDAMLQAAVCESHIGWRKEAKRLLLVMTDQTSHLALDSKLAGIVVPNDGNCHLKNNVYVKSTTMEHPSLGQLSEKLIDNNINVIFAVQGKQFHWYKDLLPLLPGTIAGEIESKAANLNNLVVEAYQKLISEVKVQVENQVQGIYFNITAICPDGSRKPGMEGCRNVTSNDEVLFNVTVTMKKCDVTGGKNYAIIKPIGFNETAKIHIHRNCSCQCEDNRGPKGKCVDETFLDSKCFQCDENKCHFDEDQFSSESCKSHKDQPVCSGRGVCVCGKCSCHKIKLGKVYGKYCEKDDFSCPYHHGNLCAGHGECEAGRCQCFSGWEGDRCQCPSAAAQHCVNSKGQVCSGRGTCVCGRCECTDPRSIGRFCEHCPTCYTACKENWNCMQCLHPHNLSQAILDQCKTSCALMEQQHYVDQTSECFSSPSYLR

| binding result [1] | binding result [2] | binding result [3] | binding result [4] | EC50 [5] | EC50 [6] | Binder |
| --- | --- | --- | --- | --- | --- | --- |
| no binding | no binding | no binding | no binding | 0.9 nM |  | SGN-B6A (h2A2 conjugated to the vedotin drug-linker) (antibody, V domains shown) VH: QFQLVQSGAEVKKPGASVKVSCKASGYSFTDYNVNWVRQAPGQGLEWIGVINPKYGTTRYNQKFKGRATLTVDKSTSTAYMELSSLRSEDTAVYYCTRGLNAWDYWGQGTLVTVSS VL: DIQMTQSPSSLSASVGDRVTITCGASENIYGALNWYQQKPGKAPKLLIYGATNLEDGVPSRFSGSGSGRDYTFTISSLQPEDIATYYCQNVLTTPYTFGQGTKLEIK |
| no binding | no binding | no binding | no binding | 0.7 nM | 0.3 nM | h2A2 (humanized 2A2 anti-integrin beta-6 antibody) (antibody, V domains shown) VH: QFQLVQSGAEVKKPGASVKVSCKASGYSFTDYNVNWVRQAPGQGLEWIGVINPKYGTTRYNQKFKGRATLTVDKSTSTAYMELSSLRSEDTAVYYCTRGLNAWDYWGQGTLVTVSS VL: DIQMTQSPSSLSASVGDRVTITCGASENIYGALNWYQQKPGKAPKLLIYGATNLEDGVPSRFSGSGSGRDYTFTISSLQPEDIATYYCQNVLTTPYTFGQGTKLEIK |
